We go through five molecules from patent US9670514B2, “Method for producing polysaccharide” (SANYO CHEMICAL INDUSTRIES, LTD., priority 2011, dated 2017).

The nature of series [1]: Specific activity of ribonucleoside diphosphate conversion enzyme solutions (TLC, UV 260 nm). The note with it: 1 mM uridine diphosphate, 30° C., pH 7.0, with the co-substrate of each enzyme. It is filed as biochemical. As to the method:
Reaction solution (2) was prepared by adding 10 μL of 1 M sucrose aqueous solution and 10 μL of sucrose synthase aqueous solution (D7-1) to 1 mL of aqueous solution R (50 mM phosphate buffer (pH of 7.0) containing 100 mM sodium chloride, 10 mM magnesium chloride, and 1 mM uridine diphosphate). Three such reaction solutions (2) were prepared and allowed to react at 30° C. for 5 minutes, 10 minutes, and 15 minutes, respectively. As for the amount of compound (C-7) as the reaction product (uridine diphosphate-glucose), the reaction product was developed on TLC (PEI-Cellulose plate available from Sigma-Aldrich Corporation, hereinafter the same) (developing solvent: an aqueous solution containing 1 M LiCl and 1 M formic acid, hereinafter the same), and detected with a UV light (260 nm). The specific activity of sucrose synthase aqueous solution (D7-1) was calculated to be 0.3 U/μL from the relationship between the yield of compound (C-7) and the reaction time.
Reaction solution (3) was prepared by adding 0.1 mg of reduced thioredoxin and 10 μL of ribonucleotide diphosphate reductase aqueous solution (D6-1) to 1 mL of aqueous solution R. Three such reaction solutions (3) were prepared and allowed to react at 30° C. for 5 minutes, 10 minutes, and 15 minutes, respectively. As for the amount of compound (C-6) as the reaction product (deoxyuridine diphosphate), the reaction product was developed on TLC and detected with a UV light (260 nm). The specific activity of ribonucleotide diphosphate reductase aqueous solution (D6-1) was calculated to be 0.3 U/μL from the relationship between the yield of compound (C-6) and the reaction time.
Reaction solution (4) was prepared by adding 10 μL of 1 M monopotassium phosphoenolpyruvate aqueous solution (available from Wako Pure Chemical Industries, Ltd.) and 10 μL of pyruvate kinase aqueous solution (D4-1-1) to 1 mL of aqueous solution R. Three such reaction solutions (4) were prepared and allowed to react at 30° C. for 5 minutes, 10 minutes, and 15 minutes, respectively. For the amount of compound (C-4) as the reaction product (uridine triphosphate), the reaction product was developed on TLC and detected with a UV light (260 nm). The specific activity of pyruvate kinase aqueous solution (D4-1-1) was calculated to be 0.3 U/μL from the relationship between the yield of compound (C-4) and the reaction time.
Reaction solution (5) was prepared by adding 10 μL of nucleotidase aqueous solution (D3-1) to 1 mL of aqueous solution R. Three such reaction solutions (5) were prepared and allowed to react at 30° C. for 5 minutes, 10 minutes, and 15 minutes, respectively. For the amount of compound (C-3) as the reaction product (uridine monophosphate), the reaction product was developed on TLC and detected with a UV light (260 nm). The specific activity of nucleotidase aqueous solution (D3-1) was calculated to be 0.3 U/μL from the relationship between the yield of compound (C-3) and the reaction time.
Reaction solution (6) was prepared by adding 1 mg of polyuridine (product name “polyuridylic acid potassium salt” available from Sigma-Aldrich Corporation) and 10 μL of polyribonucleotide nucleotidyltransferase aqueous solution (D5-1) to 1 mL of aqueous solution R. Three such reaction solutions (6) were prepared and allowed to react at 30° C. for 5 minutes, 10 minutes, and 15 minutes, respectively. […]

Series [2] is described as follows: Enzyme activity ratio (Y1)=Vmax1/Vmax2 of conversion enzyme (Lineweaver-Burk). The conditions noted are these: each. It is filed as biochemical. An excerpt: In the present invention, in the case where ribonucleoside diphosphate conversion enzyme (D) is used, an enzyme activity ratio (Y1) calculated from the following formula (1) using enzyme activity Vmax1 and enzyme activity Vmax2 described below is preferably not lower than 0.1 in terms of efficient polysaccharide production and efficient use of the substrate (ribonucleoside diphosphate-monosaccharide (A)). Enzyme activity ratio (Y1)=Vmax1/Vmax2 (1) • Enzyme activity Vmax1: the enzyme activity of ribonucleoside diphosphate conversion enzyme (D) on ribonucleoside diphosphate. • Enzyme activity Vmax2: the enzyme activity of ribonucleoside diphosphate conversion enzyme (D) on ribonucleoside diphosphate-monosaccharide (A).
An enzyme reaction solution (II) containing specific amounts of substrate (ribonucleoside diphosphate or uridine diphosphate-monosaccharide (A)), enzyme (polysaccharide synthase (B) or ribonucleoside diphosphate conversion enzyme (D)), pH adjuster (K), and water is prepared, which is adjusted to a specific temperature and a specific pH. • Phosphate-containing compound (F) is added, if necessary, to the enzyme reaction solution (II) if the enzyme to be used is (D4). Reducing agent (d6) is added if the enzyme is (D6), and raw material (d7) of nucleotide sugar is added if the enzyme is (D7).
After preparation of the enzyme reaction solution (II), it is allowed to stand for enzyme reaction for 1 minute to 100 hours. Next, the amount (X) of the reaction product obtained from the reaction is measured to determine the initial enzyme reaction velocity v. Likewise, the initial enzyme reaction velocity v is determined, using the enzyme reaction solution (II) having a different substrate concentration. A Lineweaver-Burk plot is generated from the above-obtained initial enzyme reaction velocity v and substrate concentration, and the enzyme activity Vmax is determined therefrom.
The enzyme activity Vmax (M/s) is determined using Lineweaver-Burk plot derived from Michaelis-Menten kinetics. […]
In the above measurement, the result determined using ribonucleoside diphosphate conversion enzyme (D) as an enzyme and ribonucleoside diphosphate as a substrate represents Vmax1, and the result determined using ribonucleoside diphosphate conversion enzyme (D) as an enzyme and ribonucleoside diphosphate-monosaccharide (A) as a substrate represents Vmax2. In the case where two or more types of ribonucleoside diphosphate-monosaccharide (A) are used, Vmax2 is determined for each ribonucleoside diphosphate-monosaccharide (A). The enzyme activity ratio (Y1) is also determined for each type from formula (1) using each Vmax2. […]
Enzyme reaction solution (II-1) was prepared by adding the following to 1 mL of aqueous solution P (50 mM phosphate buffer (pH of 7.0) containing 100 mM sodium chloride and 10 mM magnesium chloride): a substrate (uridine diphosphate) to a concentration of 0.5 mM in the solution, sucrose (available from Wako Pure Chemical Industries, Ltd.) to a concentration of 100 mM in the solution, and 1 μL of sucrose synthase aqueous solution (D7-1). […] Enzyme reaction solution (II-1) was allowed to stand at 30° C. for enzyme reaction for 30 minutes while measuring the amount of the reaction product (uridine diphosphate-glucose) using HPLC at 5-minute intervals, and the initial enzyme reaction velocity v was calculated. […]

The mark [3] stands for this setting: Vmax2 substrates uridine diphosphate-glucuronic acid and uridine diphosphate-N-acetylglucosamine.
Setting [4] is: Vmax2 substrates UDP-glucuronic acid, -N-acetylglucosamine, -N-acetylgalactosamine, -glucose, -mannose, -glucosamine.

B1: nucleotidase aqueous solution (D3-1): nucleotidase, SEQ ID NO: 5, derived from Escherichia coli (protein, listed as Escherichia coli)
chain: MKQSHFFAHLSRLKLINRWPLMRNVRTENVSEHSLQVAMVAHALAAIKNRKFGGNVNAERIALLAMYHDASEVLTGDLPTPVKYFNSQIAQEYKAIEKIAQQKLVDMVPEELRDIFAPLIDEHAYSDEEKSLVKQADALCAYLKCLEELAAGNNEFLLAKTRLEATLEARRSQEMDYFMEIFVPSFHLSLDEISQDSPL
In series [1], B1 displayed a specific activity of 0.3 U/μL. For the same molecule, in series [2] (setting [3]), the “enzyme activity ratio (Y1) of each type” value is recorded as no less than 10.

B2: arginine kinase aqueous solution (D4-1-3): arginine kinase, SEQ ID NO: 9, derived from Toxoplasma gondii (protein, listed as Toxoplasma gondii)
chain: MLSAASPALARKSFDFRGSALRHFSSSGGHRGSSDTKISPGHSDKSGEPLDLPVFTSTKQIATIGPASWDYEEIERLFLAGVDVFRLNMSHGLLTEKHQQLLHVRHLEKVYKHPIAVLADLPGPKFRLGVFNNDEATLETGKSFILDSSTQPGDASRVQLPHPEILSVLRPDDIVLMDDGKVKLRVTEVFADTTALSRGLGDIESVSHTASPGSSVVRAPAVRCTVLVGGRISSKKGVNVPSARLPISALSARDRELARTVASWGVDWIALSFVQSADDVHELRRELREAAEAAGSTTAQYAAEQNRSESHVDRGDASGAGCRIRPDISVMVKIEKPIALENIAEIVAAADGIMVARGDLGVELPNIAWLPRVQKRLVSLCREAGKPVVVATQMLESMMQAPLPTRAEVSDVANAVYDGADAVMLSGETAAGNAPARVACMQRLGIEGVENDPSFWELEDQRRQARLRAAERCASTGTSALRVPRASKGREQELEKGSELQGESRDRTEEILSRFLPGRREHLAFSEADRQGNTSGDTNQGTSKTEQGADESDAWVEHTAAAVARQSGAKAIVVFGENEALLQRLATLRPTAPVLAVTECVHTARRLKMYWGIYPVLLEAEDQANVESRARRPASLDDQLRLACEFARKEKFATESTDNLVVLGRLPGGRENGTNSDKTTARLTRPILTVCTLESGR
modifications: aqueous solution
For B2, the specific activity in series [1] is 0.3 U/μL. In addition, the “enzyme activity ratio (Y1) of each type” value in series [2] (setting [4]) was no less than 10.

B3: ribonucleotide diphosphate reductase aqueous solution (D6-1): ribonucleotide diphosphate reductase, SEQ ID NO: 3, derived from Corynebacterium glutamicus (protein, listed as Corynebacterium glutamicum)
chain: MAADSDLSVHDAYLKEHVAPVKAINWNSIPDSKDLEVWDRLTGNFWLPEKVPVSNDIKSWGTLNEVEKAATMRVFTGLTLLDTIQGTVGAISLLPDADSLHEEAVLTNIAFMESVHAKSYSNIFMTLASTAEINDAFRWSEENENLQRKAKIILSYYEGDDPLKRKIASVILESFLFYSGFYLPMYWSSHSKLTNTADVIRLIIRDEAVHGYYIGYKYQKAVAKETPERQEELKEYTFDLLYDLYDNETQYSEDLYDDLGWTEDVKRFLRYIANKALNNLGYEGLFPADETKVSPNILSALSPNADENHDFFSGSGSSYVIGKAENTEDDDWDF
On to B3, for which the specific activity in series [1] turned out to be 0.3 U/μL. Further, the “enzyme activity ratio (Y1) of each type” value in series [2] (setting [3]) is no less than 10.

B4: nucleoside diphosphate kinase aqueous solution (D4-1-2): nucleoside diphosphate kinase, SEQ ID NO: 8, derived from rat pancreas (protein)
chain: LSGIAVAFLLLLLCYHRSSGPRIQVANPHNWRMVHQVAGELYNDTYPLTPPLRTPEGLRYHIAIIADLDTDSRSAKANTWVSYLKRGYLTLSSSGDHVAVEWEKEDIVLETHLAEKGRGMELSELIVFNGKLYSVDDRTGVVYRIEGSKAVPWVILTDGDGTVGKGFKAEWLAVKDEQLYVGGLGKEWTTTSGVVLNENPEWVKVIGPRGDTQHHNWVSNYNQLRSAAGIQPPGYLIHESAAWSDSLKSWFFLPRRASQEQYSEKEDEKRGSNILLRATPDFSDIKMSHVGTLNPTHGFSSFKFIPGTDDQIIVALKSEEDNGKVATYITAFTLDGRILLPETKVGNVKYEGIEFI
modifications: Rat pancreas
Consider B4, for which, in series [1], the specific activity is recorded as 0.3 U/μL. The “enzyme activity ratio (Y1) of each type” value in series [2] (setting [4]) is no less than 10.

B5: apyrase aqueous solution (D2-1): apyrase, SEQ ID NO: 7, derived from xenopus (protein, listed as Xenopus laevis)
chain: MKSPQVECKESMSPLRISVAGLPVLASMTKTADPRFRPRWRAILLSGIAVAFLLLLLCYHRSSGPRIQVANPHNWRMVHQVAGELYNDTYPLTPPLRTPEGLRYHIAIIADLDTDSRSAKANTWVSYLKRGYLTLSSSGDHVAVEWEKEDIVLETHLAEKGRGMELSELIVFNGKLYSVDDRTGVVYRIEGSKAVPWVILTDGDGTVGKGFKAEWLAVKDEQLYVGGLGKEWTTTSGVVLNENPEWVKVIGPRGDTQHHNWVSNYNQLRSAAGIQPPGYLIHESAAWSDSLKSWFFLPRRASQEQYSEKEDEKRGSNILLRATPDFSDIKMSHVGTLNPTHGFSSFKFIPGTDDQIIVALKSEEDNGKVATYITAFTLDGRILLPETKVGNVKYEGIEFI
In series [1], B5 returned a specific activity of 0.3 U/μL. For the same molecule, the “enzyme activity ratio (Y1) of each type” value in series [2] (setting [3]) is on record as no less than 10.
